These results are taken from patent publication US20230381328A1, “COMPOUND FOR THE PREVENTION OR TREATMENT OF MYASTHENIA GRAVIS” (ABLEVIA BIOTECH GMBH, priority 2020, published 2023).

Where no end group is shown, it is not given here.

The assay has as its target monoclonal antibody mAB 198. Nature of the assay: peptide microarray, fluorescence, cyclic peptide.

For the molecule SLYWNPADY (also: cyclic peptide, mode of cyclisation not given here), the relative signal [%] was 9.4%. As for GGSLRYNPADY (also: cyclic peptide, mode of cyclisation not given here), the figure is 11.5%; as for GSLRWNPADYD (also: cyclic peptide, mode of cyclisation not given here), 10.2%; as for LRWNPADYR (also: cyclic peptide, mode of cyclisation not given here), 10.3%. RLRPNPADY (also: cyclic peptide, ring type and places not given here) came in with a relative signal [%] of 9.8%. As for GSLRWNPADYT (also: cyclic peptide, mode of cyclisation not given here), the figure is 8.7%. VRLRINPADYG (also: cyclic peptide, mode of cyclisation not given here) had a relative signal [%] of 10%. RANPADY (also: cyclic peptide, ring type and places not given here) [RANPADY, cyclic mimotope] gave a relative signal [%] of 12.2%.

Consider LRGNPAD (also: cyclic peptide, mode of cyclisation not given here) [LRGNPAD, cyclic mimotope], for which the relative signal [%] is 9.1%. As for LRFNPAD (also: cyclic peptide, mode of cyclisation not given here) [LRFNPAD, cyclic mimotope], the figure is 8.6%. Molecule WNPDDYR (also: cyclic peptide, mode of cyclisation not given here) [WNPDDYR, cyclic mimotope] displayed a relative signal [%] of 9%.

As to DVRLRYNPADY (also: cyclic peptide, mode of cyclisation not given here), the relative signal [%] is 10.5%. In turn, GGSLRWNPADR (also: cyclic peptide, mode of cyclisation not given here) came in with a relative signal [%] of 10.3%. As for RIRWNPADY (also: cyclic peptide, ring type and places not given here), the figure is 11.5%; as for RLHWNPADY (also: cyclic peptide, ring type and places not given here), 10.8%; as for LRWNPADYPGI (also: cyclic peptide, mode of cyclisation not given here), 8.9%. With RWNPADR (also: cyclic peptide, ring type and places not given here) [RWNPADR, cyclic mimotope] the figure was 11%; with DVRLRQNPADY (not fully specified; cyclic peptide) [DVRLRONPADY, cyclic mimotope], 8.8%; with RLRTNPADY (also: cyclic peptide, ring type and places not given here), 8.6%.

VRLRWNPADYS (also: cyclic peptide, mode of cyclisation not given here) gave a relative signal [%] of 10.5%.

Molecule RLRQNPADY (not fully specified; cyclic peptide) [RLRONPADY, cyclic mimotope] showed a relative signal [%] of 10.6%. The molecule RLRWNPADYGS (also: cyclic peptide, ring type and places not given here) displayed a relative signal [%] of 9.7%. RSRWNPADY (also: cyclic peptide, ring type and places not given here) gave a relative signal [%] of 9.8%.

Molecule RLRWNPADYGP (also: cyclic peptide, ring type and places not given here) gave a relative signal [%] of 10%. As for RLRWNPADYHG (also: cyclic peptide, ring type and places not given here), the figure is 10.1%; as for SLRWNPADYHG (also: cyclic peptide, mode of cyclisation not given here), 8.7%. RLLWNPADY (also: cyclic peptide, ring type and places not given here) registered a relative signal [%] of 9.7%. As for GSLRINPADYG (also: cyclic peptide, mode of cyclisation not given here), the figure is 12.1%. With RLRGNPADYGG (also: cyclic peptide, ring type and places not given here) the figure was 9%; with RWNPADF (also: cyclic peptide, ring type and places not given here) [RWNPADF, cyclic mimotope], 9.1%; with LRWNPADYGGF (also: cyclic peptide, mode of cyclisation not given here), 10.3%. As for QLRWNPADY (also: cyclic peptide, ring type and places not given here), the figure is 10.7%; as for LRPNPADYG (also: cyclic peptide, mode of cyclisation not given here), 10%; as for ALRWNPADY (also: cyclic peptide, mode of cyclization not given here), 11.5%. Molecule NPADYGY (also: cyclic peptide, ring type and places not given here) [NPADYGY, cyclic mimotope] displayed a relative signal [%] of 11.8%. With GSLRFNPADYG (also: cyclic peptide, mode of cyclisation not given here) the figure was 10.4%; with VRLRGNPAD (also: cyclic peptide, mode of cyclisation not given here), 9.9%; with TLRWNPADY (also: cyclic peptide, mode of cyclisation not given here), 9.9%. As for NPADYGN (also: cyclic peptide, mode of cyclisation not given here) [NPADYGN, cyclic mimotope], the figure is 8.7%; as for DVRLRWNPSDY (also: cyclic peptide, mode of cyclisation not given here), 10.5%. As for RPNPADYGG (also: cyclic peptide, ring type and places not given here), the figure is 11.9%; as for GSLRWNPADYN (also: cyclic peptide, mode of cyclisation not given here), 10%; as for GGSLRLNPADY (also: cyclic peptide, mode of cyclisation not given here), 8.5%. GSLRWNPADYQ (also: cyclic peptide, mode of cyclisation not given here) displayed a relative signal [%] of 9.7%. With VRLRLNPADYG (also: cyclic peptide, mode of cyclisation not given here) the figure was 9.7%.
